Measurements published in PMC10166511, “Fast cross-linking by DOPA2 promotes the capturing of a stereospecific protein complex over nonspecific encounter complexes” (Biophysics Reports, 2022).

Molecular target: T1, EIIA^Glc (UniProt P69783 2-169)
T1 construct: EIIA^Glc, functional subunit of Enzyme II of the bacterial glucose phosphotransferase system; Species is stated only for enzyme I (E. coli); source: purified as previously described (Garrett et al. 1999; Xing et al. 2014)
Assay: SPR + ELISA; no accurate KD obtained; format and conditions not told
Settings: both partners purified

T1 sequence (P69783 2-169): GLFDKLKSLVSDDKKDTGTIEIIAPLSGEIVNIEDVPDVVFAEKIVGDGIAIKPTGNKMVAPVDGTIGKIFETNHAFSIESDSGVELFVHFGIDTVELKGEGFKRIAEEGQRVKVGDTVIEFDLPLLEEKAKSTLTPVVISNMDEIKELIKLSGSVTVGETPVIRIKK

- Kd: > 10 µM
B1: EIIB^Glc (domain or fragment)
chain: EDATEDAKATGTSEMAPALVAAFGGKENITNLDACITRLRVSVADVSKVDQAGLKKLGAAGVVVAGSGVQAIFGTKSDNLKTEMDEYIRN
notes: EIIB^Glc, functional subunit of Enzyme II of the bacterial glucose phosphotransferase system; Species is stated only for enzyme I (E. coli); source: purified as previously described (Garrett et al. 1999; Xing et al. 2014)
